# Reference: publication PMC3087496 (Biochemistry, 2011)
# Biological target: wild-type His6-Gαi1 (rat, UniProt P10824 1-354)
# Assay: SEC
# Sequence of wild-type His6-Gαi1 (P10824 whole entry): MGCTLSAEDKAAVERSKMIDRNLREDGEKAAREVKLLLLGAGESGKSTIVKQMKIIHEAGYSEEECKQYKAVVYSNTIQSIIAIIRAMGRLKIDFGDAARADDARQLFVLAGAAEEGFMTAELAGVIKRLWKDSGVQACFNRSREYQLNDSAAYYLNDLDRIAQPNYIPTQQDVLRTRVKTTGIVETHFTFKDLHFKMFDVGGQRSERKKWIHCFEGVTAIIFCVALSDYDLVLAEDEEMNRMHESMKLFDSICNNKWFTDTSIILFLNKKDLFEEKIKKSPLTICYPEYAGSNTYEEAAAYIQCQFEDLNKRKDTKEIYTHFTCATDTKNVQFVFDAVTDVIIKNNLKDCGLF
binder,measurement,value
"TxHis6-ΔRGS14 (encoding amino acids 299-544, including the RBD domains and GL domain) (domain or fragment, rat, UniProt O08773 299-544, looked up) GKYCCVYLPDGTASLALARPGLTIRDMLAGICEKRGLSLPDIKVYLVGKEQKALVLDQDCTVLADQEVRLENRITFQLELVGLERVVRISAKPTKRLQEALQPILAKHGLSLDQVVLHRPGEKQLVDLENLVSSVASQTLVLDTLPDAKTREASSIPPCRSQGCLPRTQTKDSHLPPLSSSLSVEDASGSTGKRQTCDIEGLVELLNRVQSSGAHDQRGLLRKEDLVLPEFLQLPSQRPGSQEAPP",binding result,binds
